Assay results taken from US20180021429A1, “ANTICANCER AGENTS OR ANTIMETASTATIC AGENTS USING FSTL1 AND COMBINATION DRUG THEREOF” (PHARMA FOODS INTERNATIONAL CO., LTD., priority 2015, published 2018).

Columns and labels:
[1] = tested on: mouse breast cancer 4T1 cells; experiment: In vivo, mouse breast cancer 4T1 cell-transplanted model (Example 21); conditions: BALB/c mice; intraperitoneal 10 mg/kg on days 4 and 7
Method: Procedures and methods of the experiment were basically performed according to Examples 17 to 20 under substantially the same conditions as in the bone metastasis model experiments of Examples 17 to 20. Drug efficacy evaluation was conducted using mouse tumor models other than Snail-positive tumor bone metastasis models. The drug efficacy of the anti-FSTL1 antibody was evaluated using cancer-bearing models of BALB/c mice different in strain from the C57BL/6 mice used in the preceding tests. Changes were made as follows. • Day 0: transplantation of tumor cells (5×10^5 cells subcutaneously & 5×10^5 cells intravenously) Days 4 and 7: intraperitoneal administration of the antibody (10 mg/kg) • Day 14: drug efficacy evaluation (subcutaneous tumor growth)
The tumor volumes of the mice were measured 4, 7, 11, and 14 days after tumor implantation.

[2] = tested on: mouse lymphoma EL4; experiment: In vivo, mouse lymphoma EL4 (Example 23); conditions: intraperitoneal 10 mg/kg on days 3 and 6, vs control antibody
Method: The drug efficacy of the anti-FSTL1 antibody was evaluated according to Examples 17 to 20 using mouse lymphoma EL4, which is a cancer type having enhanced FSTL1 expression.
1. Experiment Group (n=5) • 1. Mouse lymphoma EL4+control IgG (anti-DNP mAb) • 2. Mouse lymphoma EL4+anti-FSTL1 mAb (#6-55)
• Day 0: transplantation of tumor cells (1×10^6 cells subcutaneously & 1×10^6 cells intravenously) • Day 3: intraperitoneal administration of the antibody (first dose, corresponding to 200 μg/mouse=10 mg/kg) • Day 6: intraperitoneal administration of the antibody (second dose, corresponding to 200 μg/mouse=10 mg/kg) • Day 15: various immunological assays
• Effects on the growth of subcutaneous tumor (calculation of tumor volume by tumor size measurement): measured 3, 6, and 10 days after tumor implantation

[3] = tested on: human peripheral blood cells; experiment: Treg induction inhibition using human peripheral blood cells stimulated with FSTL1 (Example 25); assay type: cell-based; conditions: FSTL1 5 ng/ml, antibody 5 μg/mL, 3 days; FIG. 113
Method: (§1) Human peripheral blood cells (1×10^6 cells) were stimulated using FSTL1 (5 ng/ml), supplemented with the antibody (5 μg/mL), and cultured for 3 days. The percentage of a Foxp3^+CTLA4^+ cell fraction (Exp. 1) or a CD4^+Foxp3^+CTLA4^+ cell fraction (Exp. 2) in CD4^+ T cells was analyzed as Treg cells by flow cytometry. The flow cytometry conditions are as follows.
Blood was collected from a healthy person by the addition of a 1/10 amount of 4% sodium citrate, then layered on Ficoll (specific gravity: 1.090), and centrifuged (1500 rpm, 20 min, room temperature), and a cell fraction present in an intermediate layer was used as “PBMCs”. The antibody (5 μg/mL) was added to a system in which these PBMCs (1×10^6 cells) were cultured for 3 days under stimulation with FSTL1 (5 ng/ml) in a 24-well plate. PBMCs recovered from the culture system were incubated at 4° C. for 1 hour using an anti-CD4 antibody (BD Pharmingen/Becton, Dickinson and Company), an anti-CD25 antibody (BD Pharmingen/Becton, Dickinson and Company), and an anti-FoxP3 antibody (eBioscience). Then, the percentage of a Foxp3+CTLA4+ cell fraction (Exp. 1) or a CD4^+Foxp3^+CTLA4^+ cell fraction (Exp. 2) in CD4^+ T cells contained therein was analyzed as Treg cells using a flow cytometer FACScan (Becton, Dickinson and Company). […]

[4] = target: T1, FSTL1 (Homo sapiens, UniProt Q12841); experiment: Treg induction inhibitory activity using human peripheral blood cells stimulated with FSTL1; assay type: cell-based; set-up: purchased R&D Systems, Inc. 1694-FN-050; conditions: human PBMCs; FSTL1 5 ng/ml; antibody 5 μg/mL; 3 days
T1 sequence (Q12841 21-308): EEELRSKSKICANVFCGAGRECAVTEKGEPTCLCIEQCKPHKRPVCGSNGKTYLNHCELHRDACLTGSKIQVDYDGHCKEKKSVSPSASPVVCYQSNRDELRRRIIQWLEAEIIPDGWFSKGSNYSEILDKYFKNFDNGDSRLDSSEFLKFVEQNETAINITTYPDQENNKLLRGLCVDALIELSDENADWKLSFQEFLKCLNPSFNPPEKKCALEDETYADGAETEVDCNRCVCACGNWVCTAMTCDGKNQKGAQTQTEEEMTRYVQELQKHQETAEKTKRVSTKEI
Method: as §1
Blood was collected from a healthy person by the addition of a 1/10 amount of 4% sodium citrate, then layered on Ficoll (specific gravity: 1.090), and centrifuged (1500 rpm, 20 min, room temperature), and a cell fraction present in an intermediate layer was used as “PBMCs”. The antibody (5 μg/mL) was added to a system in which these PBMCs (1×10^6 cells) were cultured for 3 days under stimulation with FSTL1 (5 ng/ml) in a 24-well plate. […] Then, the percentage of a Foxp3+CTLA4+ cell fraction (Exp. 1) or a CD4^+Foxp3^+CTLA4^+ cell fraction (Exp. 2) in CD4+ T cells contained therein was analyzed as Treg cells using a flow cytometer FACScan (Becton, Dickinson and Company).
as §1, with “a Foxp3^+ CTLA4^+” for “a Foxp3^+CTLA4^+”, “cytometry. […]” for “cytometry. The flow cytometry conditions are as follows.”

B1: #6-55: chicken-mouse chimeric anti-FSTL1 antibody clone; variable regions SEQ ID NO: 783 (light), 785 (heavy) (antibody, V domains shown)
VH: AVTLDESGGGLQTPGGALSLVCKGSGFTFTSVTMQWVRQAPGKGLEWVASVCSGSSTYYAPAVKGRATISRDNGQSTVRLQLSNLRPEDTGTYYCAKIAGRARWSCTSAAYNIDAWGHGTEVIVSS
VL: ASTQPSSVSAIPGETVKITCSGGGNNYGWYQQRSPGSAPVTVIYYNDNRPSNIPSRFSGSTSGSTSTLTITGVQADDEAIYYCGSWDSNTDSGIFGAGTTLTVL
modifications: mouse constant regions
growth of 4T1 subcutaneous tumor [1]: significantly suppressed
subcutaneous tumor growth [2]: strongly suppressed
Treg induction caused by FSTL1 (Foxp3+CTLA4+ fraction in CD4+ T cells) [3]: significantly suppressed
Treg induction caused by FSTL1 (Foxp3+CTLA4+ fraction in CD4+ T cells) [4]: significantly suppressed
